pKd: −log10 of the molar value.
Biological target: human RPN2, wild type, full length (human) (UniProt Q99460)
Experiment: MST

Sequence of human RPN2, wild type, full length (human) (Q99460 whole entry): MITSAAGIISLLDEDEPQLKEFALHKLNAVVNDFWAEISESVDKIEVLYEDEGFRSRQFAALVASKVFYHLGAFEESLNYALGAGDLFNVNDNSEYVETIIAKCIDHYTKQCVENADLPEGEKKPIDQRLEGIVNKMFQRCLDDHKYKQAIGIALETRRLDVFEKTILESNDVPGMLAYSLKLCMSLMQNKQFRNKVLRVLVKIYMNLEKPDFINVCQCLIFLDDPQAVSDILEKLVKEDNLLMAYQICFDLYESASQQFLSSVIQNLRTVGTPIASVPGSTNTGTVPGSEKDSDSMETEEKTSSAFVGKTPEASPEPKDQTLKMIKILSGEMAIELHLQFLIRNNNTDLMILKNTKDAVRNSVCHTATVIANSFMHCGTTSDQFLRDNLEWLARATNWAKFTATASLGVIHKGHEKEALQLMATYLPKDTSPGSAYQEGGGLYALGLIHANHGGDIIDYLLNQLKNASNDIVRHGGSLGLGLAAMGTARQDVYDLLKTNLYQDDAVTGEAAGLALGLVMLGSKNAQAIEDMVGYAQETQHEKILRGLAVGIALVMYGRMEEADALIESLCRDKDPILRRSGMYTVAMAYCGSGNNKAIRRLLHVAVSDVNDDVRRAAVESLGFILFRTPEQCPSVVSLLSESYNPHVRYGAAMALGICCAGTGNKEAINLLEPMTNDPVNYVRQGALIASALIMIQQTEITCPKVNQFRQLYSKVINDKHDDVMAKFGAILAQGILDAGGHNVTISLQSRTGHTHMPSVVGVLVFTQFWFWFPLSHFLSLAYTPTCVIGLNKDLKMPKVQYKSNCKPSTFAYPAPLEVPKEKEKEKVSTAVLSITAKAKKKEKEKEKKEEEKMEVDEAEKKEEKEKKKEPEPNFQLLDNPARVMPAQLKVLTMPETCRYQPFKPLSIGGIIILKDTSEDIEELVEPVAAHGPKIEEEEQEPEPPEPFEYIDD

In the case of “mono-ubiquitin (from UniProt P0CG48 1-76) (natural protein; other documents disagree on this pair)”, the pKd was 2.67.

Reference: paper doi:10.1101/2020.12.22.423932
